Literature values in publication PMC3039521.

Target: Abl P-x-L-P-x-K motif (UniProt P00519)

Kd: 1000 nM
Substance: Crk SH3N (from UniProt P46108)
